Positions count from the first letter of the chain named. Numbers in names are those of the source.

These results are taken from patent publication US20210070876A1 (LES LABORATOIRES SERVIER, published 2021).

Experiment [1] deals with T1, human CD73 ECD fused C-terminally to human IgG1 Fc (human, UniProt P21589 27-549, limits assumed).
T1 construct: Expressed in ExpiCHO; also called Hs CD73 ECD; Fc-tagged antigen
T1 sequence: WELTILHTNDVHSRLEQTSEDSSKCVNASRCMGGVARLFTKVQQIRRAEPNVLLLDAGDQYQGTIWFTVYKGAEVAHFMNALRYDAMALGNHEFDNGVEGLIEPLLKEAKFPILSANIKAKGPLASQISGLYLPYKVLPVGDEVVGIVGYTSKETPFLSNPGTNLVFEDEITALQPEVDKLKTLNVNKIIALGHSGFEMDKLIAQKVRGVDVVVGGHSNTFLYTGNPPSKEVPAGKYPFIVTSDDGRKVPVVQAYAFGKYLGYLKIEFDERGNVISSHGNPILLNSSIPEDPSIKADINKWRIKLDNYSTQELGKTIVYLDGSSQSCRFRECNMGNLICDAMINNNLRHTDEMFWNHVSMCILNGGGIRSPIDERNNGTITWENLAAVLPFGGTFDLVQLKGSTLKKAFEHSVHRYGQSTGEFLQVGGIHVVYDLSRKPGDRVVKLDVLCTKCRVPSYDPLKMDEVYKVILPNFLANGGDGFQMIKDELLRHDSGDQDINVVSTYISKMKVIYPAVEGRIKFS
Briefly: SPR, Fc-tagged CD73 ECD captured, Fab injected. The protocol:
(§1) Kinetic binding analysis of anti-CD73 mAbs and Fab fragments was performed by Surface Plasmon Resonance (SPR), using a Continuous Flow Microspotter (CFM, Wasatch Microfluidics, Salt Lake City, US) combined with an IBIS MX96 SPR instrument (IBIS Technologies, The Netherlands). CD73 cDNAs coding for the extracellular domains of human and cynomolgus CD73 were synthesized and each cloned into a vector containing a CMV promoter and either a C-terminal 6× histidine sequence (SEQ ID NO: 45) for His-tagged CD73 ECD, or a human IgG1 Fc sequence (AA P101-K330), resulting in fusion of IgG1 Fc C-terminally to the cloned CD73 ECD. The His-tagged and Fc-fusion constructs were transiently expressed using an ExpiCHO™ expression system and purified either by standard Ni-NTA chromatography or standard MabSelect™ SuRe™ procedures, respectively. Anti-CD73 Fab fragments were generated by digesting full-length IgG1 antibodies with GingisKHAN enzyme, using a kit provided by Genovis (Sweden). Affinities of Fab fragments were measured by capturing Fc-tagged antigens on a G-a-hu-IgG Fc SensEye® for 15 minutes using the CFM. After spotting, the SensEye® was positioned in the IBIS MX96 biosensor and immobilized antigens were fixed by SensEye FixIt kit. Kinetic analysis was performed by injecting monomeric Fab fragments at increasing concentrations from 0.8 nM to 300 nM. After each cycle of Fab fragment injection, the surface was regenerated by 10 mM glycine pH 3, 10% glycerol. Fab association was performed for 15 minutes and antigen dissociation was performed for 15 minutes. Affinities of full-length monoclonal antibodies (mAbs) were measured by capturing mAbs on a G-a-hu-IgG Fc SensEye® (Ssens BV, The Netherlands) for 15 minutes using a Continuous Flow Microspotter (CFM, Wasatch Microfluidics, Salt Lake City, US). After spotting, the SensEye was docked in the IBIS MX96 and spotted mAbs were fixed by SensEye FixIt kit (Ssens BV, The Netherlands). Kinetic analysis was performed by applying a kinetic titration series injecting increasing concentrations of His-tagged antigens from 0.16 nM to 10 nM as 2-fold dilutions. The surface was regenerated before the next cycle of cynomolgus antigen injections by 100 mM H₃PO₄, pH 3. MAb association was performed for 15 minutes and antigen dissociation was performed for 45 minutes.
For orientation: Surface plasmon resonance follows binding to a sensor surface in real time, without labels.

Experiment [2] addresses T2, cynomolgus CD73 ECD fused C-terminally to human IgG1 Fc (cynomolgus monkey (Macaca …, UniProt A0A2K5V5U7 27-549)).
T2 construct: also called Cy CD73 ECD; Fc-tagged antigen; not shown: Human IgG1 Fc (printed as AA P101-K330) fused to the C-terminus of the ECD, and any linker
T2 sequence: T1 sequence with M199T, T350A, V466I
The experiment is described as follows: SPR, Fc-tagged CD73 ECD captured, Fab injected. The protocol: as §1

Experiment [3] deals with T3, human CD73 expressed on cells (human, UniProt P21589 27-549).
T3 construct: also called 5'-NT; human CD73 on CHO-S cells
T3 sequence: T1 sequence
The experiment is described as follows: flow cytometry on CHO-S cells transiently expressing human CD73, AF647 anti-human IgG (H+L) secondary, GeoMean. The protocol:
The anti-CD73 antibodies were incubated with the hamster CHO-S cell line transiently expressing human or cynomolgus CD73 for 30 minutes at 4° C. The cells were washed twice and subsequently incubated for an additional 20 minutes with AF647-conjugated secondary anti-human IgG (H+L) antibody. After the washing step, antibody binding was detected using the high-throughput flow cytometer iQue Screener PLUS (Sartorius) measuring the GeoMean of AF647 signal in each well. Every concentration was assayed in triplicate and a 12-point titration curve was generated for each antibody.
(In general: Flow cytometry measures light scatter and fluorescence of single cells or particles in a stream.)

For experiment [4], the target named is T4, His-tagged human CD73 ECD (human, UniProt P21589 27-549).
T4 construct: runs as a homodimer of about 124-125 kDa in SEC-MALS; also called CD73-His; CD73-His ECD antigen
T4 sequence: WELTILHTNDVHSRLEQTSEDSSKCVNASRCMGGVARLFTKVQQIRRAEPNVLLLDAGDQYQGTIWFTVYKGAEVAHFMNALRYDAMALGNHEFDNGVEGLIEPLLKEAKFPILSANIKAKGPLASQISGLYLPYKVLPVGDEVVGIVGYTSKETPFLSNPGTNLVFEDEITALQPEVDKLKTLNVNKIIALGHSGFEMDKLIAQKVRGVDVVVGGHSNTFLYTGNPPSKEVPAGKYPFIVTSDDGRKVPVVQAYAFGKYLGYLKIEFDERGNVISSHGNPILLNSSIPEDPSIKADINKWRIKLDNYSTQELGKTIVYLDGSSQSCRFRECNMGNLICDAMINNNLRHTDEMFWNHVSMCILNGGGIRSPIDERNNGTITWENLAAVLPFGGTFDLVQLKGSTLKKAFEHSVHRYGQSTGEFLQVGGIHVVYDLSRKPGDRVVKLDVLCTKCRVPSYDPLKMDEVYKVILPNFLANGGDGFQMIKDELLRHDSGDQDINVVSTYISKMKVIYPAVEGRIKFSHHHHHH
Briefly: SEC-MALS, mAb:CD73 1:1. The protocol:
(§2) Anti-CD73 antibodies and His-tagged CD73 were analyzed in different ratios as well as individually to analyze the size of complexes formed between CD73 homodimer and anti-CD73 antibodies. Samples were prepared by mixing […] of CD73-His with 900, 450, 90 or 0 μmol of antibody diluted into PBS, pH 7.4. Samples were incubated for 30 min at room temperature followed by separation using a UHPLC UltiMate 3000 (Thermo Scientific) and SEC X-Bridge column (Waters) at a flow rate of 1.2 mL/min. Sample running buffer was 0.01 M Citrate, 250 mM L-Arginine.HCl, pH 6.0. Following HPLC separation, all samples were analyzed using a MiniDAWN TREOS MALS detector (Wyatt) and Optilab T-rEX refractive index detector (Wyatt). Data plots were generated using Graph Pad Prism.

For experiment [5], the target named is T4, His-tagged human CD73 ECD. Briefly: SEC-MALS, mAb:CD73 0.1:1. The protocol: as §2
For orientation: In gel filtration, larger molecules generally elute earlier.

Experiment [6] deals with T4, His-tagged human CD73 ECD. The experiment is described as follows: SEC-MALS, mAb:CD73 0.5:1. The protocol:
as §2

Experiment [7] addresses T5, His-tagged cynomolgus CD73 ECD (cynomolgus monkey (Macaca fascicularis)).
T5 chain: T1 sequence with M199T, T350A, V466I
Briefly: SPR, mAb captured, His-tagged CD73 ECD injected. The protocol: as §1

Experiment [8] concerns the target T4, His-tagged human CD73 ECD. The experiment is described as follows: SPR, mAb captured, His-tagged CD73 ECD injected. The protocol: as §1

B1: 21127 Fab fragment (Fab, V domains shown, not shown: small tags and cut ends)
VH: EVQLVESGGGLVQPGRSLRLSCAASGFTFDDFAMHWVRQAPGKGLEWVSGISWNSGNIGYADSVKGRFTISRDNAKNSLYLQMNSLRAEDTALYYCAKDKSGSPYYYYGMDVWGQGTMVTVSS
VL: DIQMTQSPSSVSASVGDRVTITCRATQGISRRLAWYQQKPGKAPKLLIYAASSLQSGVPSRFSGSGSGTDFTLTISSLQPEDFATYYCQQANSFPLTFGGGTKVEIKR
notes: Made by digesting the full-length IgG1 with GingisKHAN enzyme (Genovis)
With B1, the results for the Kd in experiment [1] and in experiment [2] were 54.6 nM and 55.3 nM, respectively.

B2: antibody 21028 (antibody, human IgG1, kappa, L234A L235A, V domains shown)
VH: EVQLVESGGGLVQPGRSLRLSCAASGFSFDDYAMHWVRQAPGKGLEWVSGISWHSDNIGYADSVKGRFTISRDNAKNSLYLQMNSLRAEDTAFYYCAKDGPRYRGSYYYFDYWGQGTLVTVSS
VL: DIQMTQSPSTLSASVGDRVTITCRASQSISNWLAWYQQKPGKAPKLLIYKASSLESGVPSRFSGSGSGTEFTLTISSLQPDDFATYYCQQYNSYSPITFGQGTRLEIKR
notes: Fully human IgG1-LALA (L234A/L235A), kappa; germline-corrected (Symplex-corrected) variable domains
With B2, in experiment [3], the binding result is on record as “binds”.

B3: antibody 21163 (antibody, human IgG1, kappa, L234A L235A, V domains shown)
VH: EVQLVESGGGLVQPGGSLRLSCAASGFSFSTYWMNWVRQAPGKGLEWVANIKQDGSEKYYVDSVKGRFTISRDNAKNSLYLQMNSLRAEDTAVYYCARDISSSWFYYYGMDVWGQGTTVTVSS
VL: DIQLTQSPSFLSASVGDRVTITCRASQGISSYLAWYQQKPGKAPKLLIYAASTLQSGVPSRFSGSGSGTEFTLTISSLQPEDFATYYCQQLNSYPPTFGGGTKVEIKR
notes: Fully human IgG1-LALA (L234A/L235A), kappa
As to B3, the “molecular mass of complex, Peak 2 (MW, kDa)” value is 280 kDa in experiment [4], 279 kDa in experiment [5] and 278 kDa in experiment [6]. The Kd (as a rule, the free concentration of one partner at which half of the binding sites on the other are occupied at equilibrium, for simple one-to-one binding) was 0.66 nM in experiment [7] and 0.91 nM in experiment [8]. Also, the koff (commonly the first-order rate constant of dissociation) was 6.2e-05 s⁻¹ in experiment [7] and 5.5e-05 s⁻¹ in experiment [8]. In addition, the kon (usually a measure of how fast the partners come together) in experiment [7] amounted to 100000 M⁻¹ s⁻¹; in experiment [8], 65000 M⁻¹ s⁻¹.

B4: 21163 Fab fragment (Fab, V domains shown, not shown: small tags and cut ends)
VH: B3 VH
VL: B3 VL
notes: as for B1
In experiment [1], B4 showed a Kd of 78.3 nM, an off-rate (koff) of 0.015 s⁻¹ and an on-rate (kon) of 200000 M⁻¹ s⁻¹. In experiment [2], this molecule came in with a Kd of 77.6 nM, an off-rate (koff) of 0.016 s⁻¹ and a kon of 200000 M⁻¹ s⁻¹.

B5: antibody 21046 (antibody, human IgG1, kappa, L234A L235A, V domains shown)
VH: EVQLVESGGGLVQPGRSLRLSCVASGFTFDDYAMHWVRQAPGKGLEWVSGISWNSGSIGYADSVKGRFTISRDNAKNSLYLQMNSLRAEDTAFYYCAQGGYAILTALEYWGQGTLVTVSS
VL: B1 VL with V11L, T26S, R31N, R32Y, Y36F, L46S, R61K, A91Y, F94Y
notes: as for B3
As for B5, the “molecular mass of complex, Peak 2 (MW, kDa)” value in experiment [4] came to 382 kDa; in experiment [5], 969 kDa; in experiment [6], 199 kDa. Further, the Kd amounted to 0.05 nM in experiment [7] and 0.04 nM in experiment [8]. For the same molecule, the off-rate (koff) in experiment [7] amounted to 1.1e-05 s⁻¹; in experiment [8], 8.3e-06 s⁻¹. Moreover, the figures for the kon in experiment [7] and in experiment [8] were 210000 M⁻¹ s⁻¹ and 190000 M⁻¹ s⁻¹, respectively.

B6: 21046 Fab fragment (Fab, V domains shown, not shown: small tags and cut ends)
VH: B5 VH
VL: B1 VL with V11L, T26S, R31N, R32Y, Y36F, L46S, R61K, A91Y, F94Y
notes: as for B1
In experiment [1], B6 returned a Kd of 0.8 nM, a koff of 0.0005 s⁻¹ and an on-rate (kon) of 610000 M⁻¹ s⁻¹. Further, in experiment [2], the affinity, expressed as Kd, was 0.8 nM; the koff was 0.00052 s⁻¹; the kon stood at 620000 M⁻¹ s⁻¹.
